# Results taken from the DeepSol protein solubility set.
# Test: soluble on expression in E. coli; label from the status in PepcDB or PDB records
row,Sequence,soluble on expression in E. coli
1,MKVILLITIFLSFYSSAETIVVEDTLFYEVAPTSKDDLLETLNSSSPIREDGNVFHGYTKYEINWRFWWKSNNNQCAFTKVETTLKLKYTMPQLTSSKSDVNVVWSNWYPNLEKHEKGHGKLAKDTAFKIEKDLLSIGPKANCNLLEKAGNKLAYKLMATLKKANKQYDIKTNHGETQNAWLYLHL,not soluble
2,MGSDKIHHHHHHEEPCPENGRVTFTVAQTRATQEGTFEKGNSIGVFAIEPKTGVYWATNNKYTYDGRAFKPATEEDNIIVTVGTDLDFYVYYPFKEGQTDITAISHAIGDQQEKSGWLSADFLTASYTDVIQDYTIPLHFEHRLSTVEVRVEGSDRVDGARMENVKYGSRFNLLTGKTVTDETRGSYAMYRYSSGNLTTVFRMTIPAQTLTTTSNYITLTGTPDMKLRGTSDMTTEPGRIHNYRIDYKIRITVLDYPQGGSTTGAGLYDMGSTCTVTASVNGGYEFAGWYEDGRIVSNDTRYSFEVLSDRTLEPRYRNYGGWSVTLTANPSVIGWQGGRSSLVAGASRGVFVNGVAENTQTAVPSLSGGAEGFLLSGNTVTVSENPSGSSRSCVFTASHGGSSATATITQEGSPVSYYFSYADGGTSHTEYPDDSSAGSFILDITSYKKTGNSTKALSWNASGDSWIHVNGSSVSYDENPAKERRTGLVTLKQDESGKTLSLKIVQPGKTSIDIEQ,not soluble
3,MSRAVTRSRLNSTTDQFMAEKINESDILERLNQTHTVRGFFITTVDVLTEAIDALMQRIFRKDNFAVKSVVEPLLHDTGPLGDLTVRLKLLFGLGVIPDEVFHDIEHLIKLRNQLNHDATEYQFTDPQILAPIKALNLVKKMGMLHLNVVEPDDDIDLSFYHLQLQRQQQVIKSGLSLAIIQICNALNK,not soluble
4,RAATQVGATTMDRPEWVAVHPDKKHVFCTLTNNKNRGKEGQPVGGPNPREKNNYGQIVRWMPAQGDHTSDVFAWDLYLIAGNPTVHKGTLYAGSENISADNMFNSPDGIGFDTAGRLWIQTDGNYSNQGDFAGQGNNQMLCGDPITGEVKRFLTGPIACEITGLTFSPDHKTMFVG,not soluble
5,MILKKDDRMYTKKPTIPENVIERAYKGKCTKEDALLLLEGNPFELFELANDLRAIAAGDTVSYVVNRNIYITNKCVGNCGFCAYRTEKGYILSIEEILKKAGDARKAGAVEVCVQGGYTPEADMEFYLEVIESLKAEYPDLCLHALSPMEVNYAAETSGMSVEEALRRLKKSGLDSLTGTSAEILSDRVRKIICPSKISTQQWIDTVTAAHKAGISTNATIMYGHVETLKERLDHVFTIREIQKETGGFTELIPMSFLPYNNPVGEKMLASGKFSSTGLEDLQLIAISRVILHTYVKNIQATWVKLGKKLAQVALQCGANDLGGTLMEDQISTASGGSHGEYVSPAEFEWMIKGAGRVPVQR,not soluble
6,MNAADDKTIVREYFNSTGFDRWKRIYGDGEVNKVQLDIRNGHQQTVDSVIGWLKNDGNLAELSICDAGCGVGSLSIPLATEGAKVYASDISEKMVEEGKQRALETLGNAENPTFAVQDLESLSGSYHTVICLDVLIHYPQEKADEMISHLCSLAQSRIILSFAPKTCALTLLKKIGSFFPGPSKTTRAYLHREADVIKILESNGFAIQRKEFTKTRFYFSRILEATRSLEHHHHHH,soluble
7,MPAHSLFSLSVSAALLLSAVPLPAQSAGWKPAEQIKTYAISGNTGGGLYQSIGERGPTAGVQAIAHTTFKLTWRRDYRPQPDGACVLVTARPNLTIIYTWPKAPSNLPPAVAASWKTFISGVETHERVHGEHILDMVKKIEAFSTGLRAENDPKCQKVRVVLQQRLGELSNEQRQRGRDFDRDELSPGGRVHQLILTLANGP,soluble
8,MTYWICITNRENWEVIKRHNVWGVPKKHKNTLSRVKPGDKLVIYVRQEKDKEGNLLEPKIVGIYEVTSEPYVDFSRIFKPHRGGKETYPYRVKIKPIKIGEINFKPLINDLKFIKNKKRWSMHFFGKAMRELPEEDYKLIEKLLL,soluble
9,MGHHHHHHSHKVENFEAAVHFYGKAIELNPANAVYFCNRAAAYSKLGNYAGAVQDCERAICIDPAYSKAYGRMGLALSSLNKHVEAVAYYKKALELDPDNETYKSNLKIAELKLREAPSPTGGVGSFDIAGLLNNPGFMSMASNLMNNPQIQQLMSGMISGGNNPLGTPGTSPSQNDLASLIQAGQQFAQQMQQQNPELIEQLRSQIRSRTP,not soluble
10,GGGQCYFIPNQSLKPNECQDLKGVSHPLNSVWKTKDCEECTCGQDAISCCNTAAIPTGYDTNKCQKILNKKTCTYTVVEKKDPGKTCDVTGWVL,soluble
11,MMNYRKADMKDISLLVSIRKRQLIDEGIEPNIDIDKELTRYFNNKLANNLLVEWIAEENNQIIATAAIAFIDFPPTYTNKTGRKGYITNMYTEPTSRGNGIATGMLDRLVNEAKERNIHKICLVASKLGRPVYKKYGFQDTDEWLELNLLEHHHHHH,soluble
12,TRPIFAIEQLSPYQNVWTIKARVSYKGEIKTWHNQRGDGKLFNVNFLDTSGEIRATAFNDFATKFNEILQEGKVYYVSKAKLQPAKPQFTNLTHPYELNLDRDTVIEECFDESN,soluble
13,GSHMKNSVSVDLPGSMKVLVSKSSNADGKYDLIATVDALELSGTSDKNNGSGVLEGVKADASKVKLTISDDLGQTTLEVFKSDGSTLVSKKVTRADGTRLEYTGIKSDGSGKAKEVLKGYVLEGTLTAEKTTLVVKEGTVTLSKNISKSGEVSVELNDTDSSAATKKTAAWNSGTSTLTITVNSKKTKDLVFTSSNTITVQQYDSNGTSLEGSAVEITKLDEIKNALK,soluble
14,MSQQKICFIGAGNMTRSIISGLIRSGYPASQVQATNPSQGKLDALATDFGVRVSQDNVSAAQDADVIILSVKPQLMEQVCQALQGIDMSNKLLITIAAGIKASRYSEYLAQPITLIRTMPNTPMQIGVGMTGLYAPQSLSDAQKAIAERLMSSGGEIVWVNEESDINQVIALAGSSPAYFFLLMESMIDAGKQMGMDEAKARSLVQQAALGAAMMAKQNPELTLGNLRENVTSKGGTTAQAIATFEAADLRGVVKKAMENCINRAEEMAKTF,soluble
15,KRIVLGVGGGIAAYKSAELVRRLRDQGAEVRVVMTQGGREFITPLTLQALSGHPVHTDLLDPAAEAAMGHIELARWADLVLIAPATADLMARLVQGVANDLLTTLVLATDAQIALAPAMNQAMWRDTATQANAELLRQRGFHLFGPAAGSQACGDVGLGRMLEAEELAQRAADCFQRQALTGVHVLITAGPTQENIDPVRYITNHSSGKMGFALAEAAVEAGARVTLVTGPVHLPTPDRVQRVDVVSARDMLAACEAAMPCDLLIASAAVADYRPEVVAAHKLKKDPTSGEGLLLQLVRNPDILATLAQREDRPFSVGFAAETENLLDYAARKLKDKNLDLIVANDVANPSIGFNSDENAITVIDRDLHPSTFAQTSKGKIARQLVAFIAD,not soluble
16,MAHHHHHHSLKQKNAYNRLTNHYDDVLTGRKWWSWLYMHCLWKTDDNIIAGSVLDMIPGNFEGRILDVPVGTAIFTYDKYRRMPQAEIVGLDYSQEMLDIAAMRFSAEQITNVSLRQGDVGSLPFPDAAFDLVLSMNGFHVFPDKDRAFAETFRVLRGGGLFCGCFYVKGERKPADWFVRKFLDKKGLFRPPHYTREEAIEKLRSLYGDNVEIQDARSLLVFKCTKPREG,soluble
17,MSLNFYYATSILIKEVVVSTKWLLGISLMLSTVAQANENSNQDTDISIPSPWKHQVEFGYQAHSGNTESESLNSRLKSEYTMGRHRTYGEWKFYKLDKNGKEDKRQSTFAFQSDYKLGPKTYLYGSFYGTNSRYTAYFKDHTLSGGLGYQFAYTDEMVLELELGPGFRYQKPNLDEIDDDDIVFPDLVQEAIFRSNLKAEWQALNNLRFEAEMTMVSGRSNTSLDSNISLTNDITDHIALKIRQSRQYHNRMPEGLSKADSVISVNLLFEFEGHHHHHH,not soluble
